Assay results: patent US20240101674A1 (OTTIMO PHARMA, published 2024)

T1: cynomolgus monkey PD1 human Fc tagged recombinant protein (cynomolgus monkey, UniProt Q15116 25-170 (human entry), limits assumed)
T1 construct: also called cyno PD1-Fc; cyno PD1; not shown: human Fc tag
T1 chain: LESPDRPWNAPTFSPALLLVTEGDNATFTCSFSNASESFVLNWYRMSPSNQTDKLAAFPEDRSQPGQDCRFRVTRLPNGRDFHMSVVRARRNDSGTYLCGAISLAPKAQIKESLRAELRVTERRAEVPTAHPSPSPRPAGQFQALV

T2: rhesus VEGFR2 protein (rhesus monkey)
T2 construct: Recombinant protein used in ELISA; also called rhesus monkey VEGFR2; rh VEGFR2
T2 chain: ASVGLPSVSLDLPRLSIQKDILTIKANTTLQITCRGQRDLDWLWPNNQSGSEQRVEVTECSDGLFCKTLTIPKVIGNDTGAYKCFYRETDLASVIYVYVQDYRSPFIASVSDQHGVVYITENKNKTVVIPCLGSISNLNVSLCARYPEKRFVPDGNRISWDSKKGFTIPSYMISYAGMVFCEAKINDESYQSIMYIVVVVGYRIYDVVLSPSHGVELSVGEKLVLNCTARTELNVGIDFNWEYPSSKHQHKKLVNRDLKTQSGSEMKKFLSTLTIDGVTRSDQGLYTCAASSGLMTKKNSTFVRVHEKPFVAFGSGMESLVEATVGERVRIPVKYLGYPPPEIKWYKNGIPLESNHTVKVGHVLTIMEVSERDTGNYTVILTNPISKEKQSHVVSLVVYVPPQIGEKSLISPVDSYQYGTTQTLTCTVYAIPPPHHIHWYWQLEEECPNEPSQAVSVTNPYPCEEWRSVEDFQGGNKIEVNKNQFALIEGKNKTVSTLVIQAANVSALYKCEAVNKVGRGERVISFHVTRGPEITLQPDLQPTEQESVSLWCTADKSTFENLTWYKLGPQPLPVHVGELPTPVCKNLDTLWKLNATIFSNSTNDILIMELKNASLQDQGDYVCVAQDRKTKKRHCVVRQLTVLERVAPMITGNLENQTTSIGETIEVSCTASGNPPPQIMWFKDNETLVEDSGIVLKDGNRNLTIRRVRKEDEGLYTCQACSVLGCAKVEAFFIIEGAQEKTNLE


What was measured:
[1] = molecular target: T1, cynomolgus monkey PD1 human Fc tagged …; experiment: periprep Fab direct binding ELISA (FIG. 1)
[2] = molecular target: T3, human VEGFR2 protein (human, UniProt P35968 20-764); experiment: periprep Fab direct binding ELISA (FIG. 1)
T3 construct: Recombinant protein used in ELISA; also called hu VEGFR2; KDR

[3] = molecular target: T2, rhesus VEGFR2 protein; experiment: periprep Fab direct binding ELISA (FIG. 1)
[4] = molecular target: T4, biotinylated human PD1-His/AviTag (human, UniProt Q15116 25-170, limits assumed, biotinylated); experiment: Alphascreen epitope competition, Fab periprep; competitor hMAb005 IgG1 null on biotinylated human PD1-His/AviTag
T4 construct: also called human PD1 protein (Alphascreen); not shown: His/AviTag
Experimental: FIG. 2A-FIG. 2B. Epitope competition analysis of Fab proteins in Alphascreen Anti-PD1 clones were expressed as Fab in E. coli and peripreps were applied in an epitope competition assay using Alphascreen technology.
The AlphaScreen assay (Perkin Elmer) was performed in a 25 μl final volume in 384-well white microtiter plates (Greiner). The reaction buffer contained 1×PBS pH 7.3 (Oxoid, Cat. nr. BR0014G) and 0.05% (v/v) Tween® 20 (Sigma, Cat. nr. P9416). Periprep samples diluted in reaction buffer were incubated with biotinylated human PD1-His/AviTag at 0.6 nM final concentration for 20 minutes at room temperature. […] The emission of light was measured in the EnVision multilabel plate reader (Perkin Elmer) and analysed using the EnVision manager software. Values were reported as Counts Per Second (CPS) and corrected for crosstalk. Signal reduction percentages were calculated relative to the irrelevant sample.

[5] = molecular target: T5, human PD1 human Fc tagged recombinant protein (human, UniProt Q15116 25-170); experiment: direct titration ELISA, IgG1 null on coated PD1-Fc (FIG. 3A)
T5 construct: also called human PD1-Fc; hu PD1; not shown: human Fc tag
Experimental: (§1) Binding and cross-reactivity of the lead panel to the recombinant proteins was initially assessed by binding ELISA. The human PD1 human Fc tagged recombinant protein and the cynomolgus monkey PD1 human Fc tagged recombinant protein were coated to the surface of MaxiSorp™ flat-bottom 96 well plate at 1 μg/ml. The purified Fab or IgG samples were titrated in two fold serial dilutions starting from 500 nM to 0.98 nM and allowed to bind to the coated antigens. The Fabs were detected using mouse anti-c-myc antibody followed by donkey anti-mouse IgG conjugated to horseradish peroxidase. The IgGs were detected using the mouse anti-human IgG conjugated to horseradish peroxidase. Binding signals were visualized with 3,3′,5,5′-Tetramethylbenzidine Substrate Solution (TMB) and the absorbance measured at 450 nm.

[6] = molecular target: T1, cynomolgus monkey PD1 human Fc tagged …; experiment: as above
Experimental: as §1

[7] = molecular target: T3, human VEGFR2 protein; experiment: direct titration ELISA, IgG1 null on VEGFR2 protein (FIG. 3B)
[8] = molecular target: T2, rhesus VEGFR2 protein; experiment: as above

T5 sequence (Q15116 25-170 limits assumed): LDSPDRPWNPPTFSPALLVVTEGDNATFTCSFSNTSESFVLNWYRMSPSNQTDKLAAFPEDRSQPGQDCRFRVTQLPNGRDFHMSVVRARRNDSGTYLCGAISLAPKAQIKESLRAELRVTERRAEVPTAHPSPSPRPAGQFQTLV
T4 sequence (Q15116 25-170 limits assumed): as above

Binder	binding result [1]	binding result [2]	binding result [3]	percentage signal reduction of hMAb005/PD1 interaction [4]	binding result [5]	binding result [6]	binding result [7]	binding result [8]
MAB02D08 Fab (Fab, V domains shown, Library-derived clone screened as human IgG1-kappa Fab in E. coli periplasmic extract; also called MAB02D08 (periprep Fab)) VH: EVQLVESGGGLVQPGGSLRLSCAASGFTFSSYMMSWVRQAPGKGLEWVATISGGGANTYYPDSVKGRFTISRDNAKNSLYLQMNSLRAEDTAVYYCARQLYYFDYWGQGTTVTVSS VL: DIQMTQSPSSLSASVGDRVTITCLASQESGIWLSWYQQKPGKAPKLLIYTATSLADGVPSRFSGSGSGTDFTLTISSLQPEDFATYYCQQVYSIPWTFGGGTKVEIK	binds	binds	binds	> 75%	–	–	–	–
MAB06 IgG1 null (antibody, V domains shown, Human IgG1 null format (L234A, L235A, G237A) with human C kappa; only variable domains are tied to the clone) VH: EVQLVESGGGLVQPGGSLRLSCAASGFTFSSYMMSWVRQAPGKGLEWVATISGGGANTYYPDSVKGRFTISRDNAKNSLYLQMNSLRAEDTAVYYCARQLYYFDYWGQGTTVTVSS VL: DIQMTQSPSSLSASVGDRVTITCLASQESGIWLSWYQQKPGKAPKLLIYTATSLADGVPSRFSGSGSGTDFTLTISSLQPEDFATYYCQQVSVTPFTFGGGTKVEIK	–	–	–	–	binds	binds	binds	binds
hMAb005 IgG1 null (antibody, V domains shown, Tested as human IgG1 null (L234A, L235A, G237A) with human C kappa; also called humanized MAb005) VH: EVQLVESGGGLVQPGGSLRLSCAASGFTFSSYMMSWVRQAPGKGLEWVATISGGGANTYYPDSVKGRFTISRDNAKNSLYLQMNSLRAEDTAVYYCARQLYYFDYWGQGTTVTVSS VL: DIQMTQSPSSLSASVGDRVTITCLASQTIGTWLTWYQQKPGKAPKLLIYTATSLADGVPSRFSGSGSGTDFTLTISSLQPEDFATYYCQQVYSIPWTFGGGTKVEIK	–	–	–	–	binds	binds	–	–
MAB04 IgG1 null (antibody, V domains shown, Human IgG1 null format (L234A, L235A, G237A) with human C kappa; only variable domains are tied to the clone) VH: EVQLVESGGGLVQPGGSLRLSCAASGFTFSSYMMSWVRQAPGKGLEWVATISGGGANTYYPDSVKGRFTISRDNAKNSLYLQMNSLRAEDTAVYYCARQLYYFDYWGQGTTVTVSS VL: DIQMTQSPSSLSASVGDRVTITCLASQGIGPWLSWYQQKPGKAPKLLIYTATSLADGVPSRFSGSGSGTDFTLTISSLQPEDFATYYCQQVSVTPFTFGGGTKVEIK	–	–	–	–	binds	binds	binds	binds
MAB02A03 IgG1 null (antibody, V domains shown, Human IgG1 null format (L234A, L235A, G237A) with human C kappa; only variable domains are tied to the clone) VH: EVQLVESGGGLVQPGGSLRLSCAASGFTFSSYMMSWVRQAPGKGLEWVATISGGGANTYYPDSVKGRFTISRDNAKNSLYLQMNSLRAEDTAVYYCARQLYYFDYWGQGTTVTVSS VL: DIQMTQSSSSLSASVGDRVTITCLASQGIGPWLSWYQQKPGKAPKLLIYTATSLADGVPSRFSGSGSGTDFTLTISSLQPEDFATYYCQQVYSIPWTFGGGTKVEIK	–	–	–	–	–	binds	binds	binds

Results, then the binder that gave them:

binding result [1]	binding result [2]	binding result [3]	percentage signal reduction of hMAb005/PD1 interaction [4]	binding result [5]	binding result [6]	binding result [7]	binding result [8]	Binder
–	–	–	–	–	binds	binds	binds	MAB02D08 IgG1 null (antibody, V domains shown, Human IgG1 null format (L234A, L235A, G237A) with human C kappa; only variable domains are tied to the clone) VH: EVQLVESGGGLVQPGGSLRLSCAASGFTFSSYMMSWVRQAPGKGLEWVATISGGGANTYYPDSVKGRFTISRDNAKNSLYLQMNSLRAEDTAVYYCARQLYYFDYWGQGTTVTVSS VL: DIQMTQSPSSLSASVGDRVTITCLASQESGIWLSWYQQKPGKAPKLLIYTATSLADGVPSRFSGSGSGTDFTLTISSLQPEDFATYYCQQVYSIPWTFGGGTKVEIK
–	–	–	–	binds	binds	–	–	MAB02 IgG1 null (antibody, V domains shown, Human IgG1 null format (L234A, L235A, G237A) with human C kappa; only variable domains are tied to the clone) VH: EVQLVESGGGLVQPGGSLRLSCAASGFTFSSYMMSWVRQAPGKGLEWVATISGGGANTYYPDSVKGRFTISRDNAKNSLYLQMNSLRAEDTAVYYCARQLYYFDYWGQGTTVTVSS VL: DIQMTQSPSSLSASVGDRVTITCLASQPLGIWLSWYQQKPGKAPKLLIYTATSLADGVPSRFSGSGSGTDFTLTISSLQPEDFATYYCQQVAELPFGFGGGTKVEIK
–	–	–	–	–	binds	binds	binds	MAB05G03 IgG1 null (antibody, V domains shown, Human IgG1 null format (L234A, L235A, G237A) with human C kappa; only variable domains are tied to the clone) VH: EVQLVESGGGLVQPGGSLRLSCAASGFTFSSYMMSWVRQAPGKGLEWVATISGGGANTYYPDSVKGRFTISRDNAKNSLYLQMNSLRAEDTAVYYCARQLYYFDYWGQGTTVTVSS VL: DIQMTQSPSSLSASVGDRVTITCLASQTIGTWLTWYQQKPGKAPKLLIYTATSLADGVPSRFSGSGSGTDFTLTISSLQPEDFATYYCQQVAELPFGFGGGTKVEIK
–	–	–	–	–	binds	binds	binds	MAB05E08 IgG1 null (antibody, V domains shown, Human IgG1 null format (L234A, L235A, G237A) with human C kappa; only variable domains are tied to the clone) VH: EVQLVESGGGLVQPGGSLRLSCAASGFTFSSYMMSWVRQAPGKGLEWVATISGGGANTYYPDSVKGRFTISRDNAKNSLYLQMNSLRAEDTAVYYCARQLYYFDYWGQGTTVTVSS VL: DIQMTQSPSSLSASVGDRVTITCLASQTIGTWLTWYQQKPGKAPKLLIYTATSLADGVPSRFSGSGSGTDFTLTISSLQPEDFATYYCQQVSVTPFTFGGGTKVEIK
–	–	–	–	–	binds	binds	binds	MAB02B03 IgG1 null (antibody, V domains shown, Human IgG1 null format (L234A, L235A, G237A) with human C kappa; only variable domains are tied to the clone) VH: EVQLVESGGGLVQPGGSLRLSCAASGFTFSSYMMSWVRQAPGKGLEWVATISGGGANTYYPDSVKGRFTISRDNAKNSLYLQMNSLRAEDTAVYYCARQLYYFDYWGQGTTVTVSS VL: DIQMTQSPSSLSASVGDRVTITCLASQPLGIWLSWYQQKPGKAPKLLIYTATSLADGVPSRFSGSGSGTDFTLTISSLQPEDFATYYCQQVYSIPWTFGGGTKVEIK
–	–	–	–	binds	binds	binds	binds	MAB05 IgG1 null (antibody, V domains shown, Human IgG1 null format (L234A, L235A, G237A) with human C kappa; only variable domains are tied to the clone) VH: EVQLVESGGGLVQPGGSLRLSCAASGFTFSSYMMSWVRQAPGKGLEWVATISGGGANTYYPDSVKGRFTISRDNAKNSLYLQMNSLRAEDTAVYYCARQLYYFDYWGQGTTVTVSS VL: DIQMTQSPSSLSASVGDRVTITCLASQPLGIWLSWYQQKPGKAPKLLIYTATSLADGVPSRFSGSGSGTDFTLTISSLQPEDFATYYCQQVSVTPFTFGGGTKVEIK
–	–	–	–	binds	binds	binds	binds	MAB01 IgG1 null (antibody, V domains shown, Human IgG1 null format (L234A, L235A, G237A) with human C kappa; only variable domains are tied to the clone) VH: EVQLVESGGGLVQPGGSLRLSCAASGFTFSSYMMSWVRQAPGKGLEWVATISGGGANTYYPDSVKGRFTISRDNAKNSLYLQMNSLRAEDTAVYYCARQLYYFDYWGQGTTVTVSS VL: DIQMTQSPSSLSASVGDRVTITCLASQGIGPWLSWYQQKPGKAPKLLIYTATSLADGVPSRFSGSGSGTDFTLTISSLQPEDFATYYCQQVAELPFGFGGGTKVEIK
